Assay results reported in patent publication US20260167959A1, “APTAZYME-BASED REGULATABLE GENE EXPRESSION SYSTEMS” (REJUVENATE BIO INC, priority 2022, published 2026).
Where a chain is given by its changes, count along the chain named.

B1: RA351 (nucleic acid)
DNA: GCGCGTCCTGGATTCGCGGAAACGCGTACATCCAGCGAGAATACCAGCATCGTCTTGATGCCCTTGGAAGTCTCTGACGAGTCCCAAATAGGACGAAACGCGC
modifications: expressed or natural sequence
B2: RA356 (nucleic acid)
DNA: GCGCGTCCTGGATTCGCGGAAACGCGTACATCCAGCTGACGAGTCCCAAATAGGACGAAAGAGAATACCAGCATCGTCTTGATGCCCTTGGAAGTCTCCGCGC
modifications: expressed or natural sequence
B3: RA362 (nucleic acid)
DNA: GCGCGTCCTGGAGGAATACCAGCATCGTCTTGATGCCCTTGGAAGTCCTTCGCGGAAACGCGTACATCCAGCTGACGAGTCCCAAATAGGACGAAACGCGC
modifications: expressed or natural sequence
B4: RA359 (nucleic acid)
DNA: GCGCGTCCTGGATAGAATACCAGCATCGTCTTGATGCCCTTGGAAGTCTTCGCGGAAACGCGTACATCCAGCTGACGAGTCCCAAATAGGACGAAACGCGC
modifications: expressed or natural sequence
B5: RA367 (nucleic acid)
DNA: B4 DNA with A14G, T49C
modifications: expressed or natural sequence
B6: RA360 (nucleic acid)
DNA: GCAGAATACCAGCATCGTCTTGATGCCCTTGGAAGTCTGCGTCCTGGATTCGCGGAAACGCGTACATCCAGCTGACGAGTCCCAAATAGGACGAAACGCGC
modifications: expressed or natural sequence
B7: RA352 (nucleic acid)
DNA: GCGCGTCCTGGATTCGCGGAAACGCGTACATCCAGCTGACGAGTCCCAAATAGGACGAAACGCGCGAGAATACCAGCATCGTCTTGATGCCCTTGGAAGTCTCGC
modifications: expressed or natural sequence
B8: RA348 (nucleic acid)
DNA: GCGCGTCCTGGATTCGCGGAAACGCGTACATCCAGCTGACGACGAGAATACCAGCATCGTCTTGATGCCCTTGGAAGTCTCGGTCCCAAATAGGACGAAACGCGC
modifications: expressed or natural sequence
B9: RA365 (nucleic acid)
DNA: GCGAGAATACCAGCATCGTCTTGATGCCCTTGGAAGTCTCGTCCTGGATTCGCGGAAACGCGTACATCCAGCTGACGAGTCCCAAATAGGACGAAACGCGC
modifications: expressed or natural sequence
B10: RA363 (nucleic acid)
DNA: GCGCGTCCTGGATTCGCGGAAACGCGTACATCCAGCTGACGAGTCCCACGGAATACCAGCATCGTCTTGATGCCCTTGGAAGTCCGAATAGGACGAAACGCGC
modifications: expressed or natural sequence
B11: RA364 (nucleic acid)
DNA: GCGCGTCCTGGATTCGCGGAAACGCGTGGAATACCAGCATCGTCTTGATGCCCTTGGAAGTCCACATCCAGCTGACGAGTCCCAAATAGGACGAAACGCGC
modifications: expressed or natural sequence
B12: RA353 (nucleic acid)
DNA: GCGCGTCCTGGATTCGCGGAAACGCGTACATCCAGCTGACGAGTCCCAAATAGGACGAAACGCCGGAATACCAGCATCGTCTTGATGCCCTTGGAAGTCCGGCGC
modifications: expressed or natural sequence
B13: RA366 (nucleic acid)
DNA: GCGCGTCCTGGATTCGCGGAAGAGAATACCAGCATCGTCTTGATGCCCTTGGAAGTCTCACGCGTACATCCAGCTGACGAGTCCCAAATAGGACGAAACGCGC
modifications: expressed or natural sequence
B14: RA355 (nucleic acid)
DNA: GCGCGTCCTGGATTCGCGGAAACGCGTACATCGAGAATACCAGCATCGTCTTGATGCCCTTGGAAGTCTCCAGCTGACGAGTCCCAAATAGGACGAAACGCGC
modifications: expressed or natural sequence
B15: RA368 (nucleic acid)
DNA: GCGCGTCCTGGATTCGCGGAAACGCGTACATCCAGCTGACGAGTCCCGAGAATACCAGCATCGTCTTGATGCCCTTGGAAGTCTCGCAAATAGGACGAAACGCGC
modifications: expressed or natural sequence
B16: RA347 (nucleic acid)
DNA: GCGCGTCCTGGATTCGCGGAAACGCAGAATACCAGCATCGTCTTGATGCCCTTGGAAGTCTGTACATCCAGCTGACGAGTCCCAAATAGGACGAAACGCGC
modifications: expressed or natural sequence
B17: RA361 (nucleic acid)
DNA: GCGCGTCCTGGATTCGCGGAAACGCGTACATCCAGCTGACGAGTCCCAAATAGGACGAAACGCCCGGAATACCAGCATCGTCTTGATGCCCTTGGAAGTCCGGGC
modifications: expressed or natural sequence
B18: RA354 (nucleic acid)
DNA: GCGCGTCCTGGATTCGCGGAAACGCGTACATCCAGCTGACGAGTCCCAAATAGGAGTGATACCAGCATCGTCTTGATGCCCTTGGCAGCACTACGAAACGCGC
modifications: expressed or natural sequence
B19: RA346 (nucleic acid)
DNA: GCGCGTCCTGGATTCGCGGAAACGCGTACATCCAGCTGGAATACCAGCATCGTCTTGATGCCCTTGGAAGTCCGACGAGTCCCAAATAGGACGAAACGCGC
modifications: expressed or natural sequence
B20: RA350 (nucleic acid)
DNA: GCGCAGAATACCAGCATCGTCTTGATGCCCTTGGAAGTCTGTCCTGGATTCGCGGAAACGCGTACATCCAGCTGACGAGTCCCAAATAGGACGAAACGCGC
modifications: expressed or natural sequence
B21: RA369 (nucleic acid)
DNA: GCGCGTCCTGGATTCGGAATACCAGCATCGTCTTGATGCCCTTGGAAGTCCGCGCGGAAACGCGTACATCCAGCTGACGAGTCCCAAATAGGACGAAACGCGC
modifications: expressed or natural sequence
B22: RA349 (nucleic acid)
DNA: GCGCGTCCTGGATTCGCGGAAACGCGTACATCCAGCTGACGAGGAGAATACCAGCATCGTCTTGATGCCCTTGGAAGTCTCTCCCAAATAGGACGAAACGCGC
modifications: expressed or natural sequence
B23: RA358 (nucleic acid)
DNA: B22 DNA with G44C, A45G, T80C, C81G
modifications: expressed or natural sequence
B24: RA357 (nucleic acid)
DNA: GCGCGTCCTGGATTCGCGGAAACGCGTACATCCAGCTGACGAGTCCCAAATAGGACGGGAATACCAGCATCGTCTTGATGCCCTTGGAAGTCCAAACGCGC
modifications: expressed or natural sequence
B25: RA035 (nucleic acid)
DNA: B2 DNA with G61C, A62G, T97C, C98G
modifications: expressed or natural sequence
B26: RA036 (nucleic acid)
DNA: GCGCGTCCTGGATTCGCGGAAACGCGTACATCCAGCTGACGAGTCCCAAATAGGCGAGAATACCAGCATCGTCTTGATGCCCTTGGAAGTCTCGACGAAACGCGC
modifications: expressed or natural sequence
B27: RA034 (nucleic acid)
DNA: GCGCGTCCTGGATTCGCGGAAACGCGTACATCCAGCTGACGAGAGAATACCAGCATCGTCTTGATGCCCTTGGAAGTCTCGTCCCAAATAGGACGAAACGCGC
modifications: expressed or natural sequence

These molecules were tested on Renilla luciferase RNA (assay: Barcoded aptazyme variant library screen: un-cleaved Renilla luciferase RNA by barcode read counts, HEK293-T cells). Details: un-cleaved Renilla luciferase RNA by barcode read counts; with 1 mM theophylline (ON) over without theophylline (OFF); HEK293-T cells; triplicate.
Assay type: cell-based
Summary of the method: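 Barcode sequencing of cDNA versus DNA, normalized per aptazyme, gave the un-cleaved Renilla luciferase RNA fraction and fold-change with versus without theophylline (triplicates). Library: T3H48 ribozyme with one of seven theophylline aptamer variants inserted at each position, placed in the Renilla 3′ UTR of a dual-luciferase vector.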

Molecule | Fold change in RNA expression between the ON state and the OFF state
B1 | 0.9
B2 | 0.8
B3 | 0.8
B4 | 0.8
B5 | 0.8
B6 | 0.8
B7 | 0.9
B8 | 0.9
B9 | 0.8
B10 | 0.8
B11 | 0.8
B12 | 0.9
B13 | 0.8
B14 | 0.9
B15 | 0.8
B16 | 0.9
B17 | 0.8
B18 | 0.9
B19 | 0.9
B20 | 0.9
B21 | 0.8
B22 | 0.9
B23 | 0.8
B24 | 0.8

Same assay, conditions: un-cleaved Renilla luciferase RNA, HEK293-T cells cultured with 1 mM theophylline (ON) over without theophylline (OFF); barcode read counts, triplicate

Molecule | Fold change in RNA expression between the ON state and the OFF state
B25 | 2.2 fold
B26 | 2.2 fold
B27 | 2.3 fold
